What all share (format): biochemical
Series [1] is described as follows: Screening of AS single mutant library for glucosylation of α-L-Rhap-OMe (HPLC). Particulars: FIG. 6. The protocol: The protocol was established to enable the rapid identification of clones able to glucosylate α-L-Rhap-OMe (formula II). To obtain higher amounts of enzymes and facilitate detection of glucosylated compounds upon HPLC screening, mutants were produced in 96-DeepWell Format plates. Storage microplates containing monomutants were thawed and replicated to inoculate a starter culture in 96-well microplates containing, in each well, 150 μL LB medium supplemented with ampicillin (100 μg/mL). After growth for 24 h at 30° C. under agitation (200 rpm), plates were duplicated into 96-Deep Well plates containing, in each well, 1.1 mL LB medium supplemented with ampicillin (100 μg/mL) and IPTG (1 mM) to induce GST-AS expression. Cultures were then grown for 24 h at 30° C. under agitation (200 rpm). […]
Efficiency of the glucosylation reaction was evaluated by HPLC analysis of the acceptor reaction product synthesized when using α-L-Rhap-OMe as acceptor using a Dionex P 680 series pump, a Shodex RI 101 series refractometer, a Dionex UVD 340 UV/Vis detector and an autosampler HTC PAL. […]
For each of the 7 selected positions, 19 single mutants were generated (corresponding to each possible amino acid change). […] Both sucrose consumption and disaccharide formation were determined in order to calculate the glucosylation rate defined as the molar ratio of monoglucosylated acceptor versus/sucrose consumed.

The nature of series [2]: Comparison of products synthesized by wild type and AS variant I228Y (HPAEC/HPLC). To be noted: for recognition of α-L-RhapO-Me as an acceptor: purified enzyme, HPLC, FIG. 7A. The protocol: All assays were performed at 30° C. in 50 mM Tris buffer, pH=7.0.
Comparison of products synthesized by wild type and AS variant. Reactions were performed in the presence of 146 mM sucrose alone or supplemented with 146 mM acceptor. The purified wild-type or mutated GST/AS were employed at 0.5 U/mL. The reactions were stopped by heating at 95° C. for […]. The final mixture was centrifuged at 18 000 g for 5 min.
Soluble and insoluble oligosaccharides produced during the reaction were identified by HPAEC using a Dionex Carbo-Pack PA100 column at 30° C. Before analysis, the insoluble fraction was solubilised in KOH at a final total sugar concentration of 10 g/kg. Mobile phase (150 mM NaOH) was set at 1 mL/min flow rate with a sodium acetate gradient (going from 6 to 500 mM within 120 min). Detection was performed using a Dionex ED40 module with a gold working electrode and an Ag/AgCl pH reference. Note that α-L-Rhap-OMe (acceptor) and its derivatives are not oxidable products and thus are not detectable by HPAEC. Sucrose, glucose, fructose, α-L-Rhap-OMe (acceptor) and its derivatives (glucosylation products) were quantified by HPLC, as previously described.

Series [3] can be described thus: Determination of kinetic parameters (catalytic efficiency) of ASNPwt and I228Y. Particulars: for activation in the presence of α-L-RhapO-Me: increasing concentration of acceptor, FIG. 7D(b), 7E. As for the experimental part:
Catalytic efficiency (Eff=kcat/KM) of ASNPwt and I228Y variant were determined with both sucrose (D=Donor) and methyl α-L-rhamnopyranoside (A=Acceptor) as variable substrates. For the determination of the catalytic efficiency for D, A was held constant at 250 mM and D was varied between 0 and 600 mM. For the determination of the catalytic efficiency for A, D was held constant at 250 mM and A was varied between 0 and 500 mM. Experiments were performed until A and D solubility limits were reached. For each experiment, two distinct reaction velocities were determined: (1) the donor consumption determined by the release of fructose (called Vi (F)), corresponding to the overall kinetics of the different reactions described in FIG. 3 and (2) the acceptor glucosylation determined by the formation of α-D-Glcp-(1→3)-α-L-RhapOMe (called Vi(Dp2)), corresponding to the kinetics of the reaction of interest.
Initial velocities were fitted to the Michaelis-Menten equation using Sigma-Plot. As saturation was not achieved with the mutant, efficiency was calculated by linear regression analysis of the velocity versus substrate concentration plot. Aliquots (200 μL) were removed between 0 and 60 min (at which time product formation was still linear with respect to time), heated at 95° C. for 5 min and centrifuged at 18 000 g for 5 min. The final mixtures were filtered on a 0.22 μm membrane and analyzed using HPLC material previously described. HPLC analyses were performed using two columns: 1) a Biorad HPLC Carbohydrate Analysis column (HPX-87H column (300×7.8 mm)) maintained at 30° C., using ultra-pure water as eluent with a flow rate of 0.6 mL/min; 2) a reversed phase analytical column (Synergi C18RPFusion, 4 μm, 30×4.6 mm) kept at room temperature, with 1 ml/min of ultra-pure water as eluent. HPX-87H column was used to determine the released fructose by RI detection. C18RPfusion column was used to detect the formation of α-D-Glcp-(1→3)-α-L-RhapOMe.

Series [4] in a line: Enzymatic glucosylation of L-Rhap by 1G5A mutants. Particulars: sucrose donor and L-Rhap acceptor 1:1, 146 mM. The protocol:
(§1) The enzymatic reaction was carried out using sucrose as donor and rhamnose derivative as acceptor in a 1:1 ratio (146 mM for L-Rhap, 50 mM for α-L-Rhap-OAll).
(§2) Efficiency of the glucosylation reaction was evaluated by HPLC analysis of the acceptor reaction product synthesized using a reversed phase analytical column (Synergi C18RPFusion, 4 μm, 30×4.6 mm) (when testing L-Rhap) and a Biorad HPLC Carbohydrate Analysis column (HPX-87K column (300×7.8 mm)) when testing α-L-Rhap-OAll. (cf. Example 1/Materials and Methods/Screening of mutant library)

A short description of series [5]: Enzymatic glucosylation of α-L-Rhap-OAll by 1G5A mutants. Particulars: sucrose donor and α-L-Rhap-OAll acceptor 1:1, 50 mM. The protocol:
as §1, §2

Where [6] appears, read: 146 mM sucrose supplemented with 146 mM acceptor.

Where a chain is given by its changes, count along the chain named. Numbers in names are those of the source.

B1: wild type AS: Wild type glycoside hydrolase: amylosucrase (ASNPwt) 1G5A of sequence SEQ ID NO: 13, from Neisseria polysaccharea (protein, listed as Neisseria polysaccharea)
chain: SPNSQYLKTRILDIYTPEQRAGIEKSEDWRQFSRRMDTHFPKLMNELDSVYGNNEALLPMLEMLLAQAWQSYSQRNSSLKDIDIARENNPDWILSNKQVGGVCYVDLFAGDLKGLKDKIPYFQELGLTYLHLMPLFKCPEGKSDGGYAVSSYRDVNPALGTIGDLREVIAALHEAGISAVVDFIFNHTSNEHEWAQRCAAGDPLFDNFYYIFPDRRMPDQYDRTLREIFPDQHPGGFSQLEDGRWVWTTFNSFQWDLNYSNPWVFRAMAGEMLFLANLGVDILRMDAVAFIWKQMGTSCENLPQAHALIRAFNAVMRIAAPAVFFKSEAIVHPDQVVQYIGQDECQIGYNPLQMALLWNTLATREVNLLHQALTYRHNLPEHTAWVNYVRSHDDIGWTFADEDAAYLGISGYDHRQFLNRFFVNRFDGSFARGVPFQYNPSTGDCRVSGTAAALVGLAQDDPHAVDRIKLLYSIALSTGGLPLIYLGDEVGTLNDDDWSQDSNKSDDSRWAHRPRYNEALYAQRNDPSTAAGQIYQDLRHMIAVRQSNPRFDGGRLVTFNTNNKHIIGYIRNNALLAFGNFSEYPQTVTAHTLQAMPFKAHDLIGGKTVSLNQDLTLQPYQVMWLEIA
B1: in series [1], the “recognition of α-L-Rhap-OMe as acceptor / ability to form the desired disaccharide” value was “does not recognize the α-L-RhapO-Me as an acceptor”. Moreover, in series [2] (setting [6]), the “effect of the presence of α-L-RhapO-Me in the reaction medium on the product profile” value is given as “does not affect the product profile” and the “recognition of α-L-RhapO-Me as an acceptor” value is recorded as “does not recognize at all α-L-RhapO-Me as an acceptor”. Also, the “activation in the presence of α-L-RhapO-Me” value in series [3] was “no activation”. In addition, the catalytic efficiency result in series [3] (sucrose constant 250 mM, varied acceptor concentration) was “null catalytic efficiency”. In series [3] (sucrose constant 250 mM, varied acceptor concentration, FIG. 7E), the “Vi(Dp2) (acceptor glucosylation velocity)” value came out at 0. Moreover, the “glucosylation of L-rhamnose with α-(1→3) linkage” value in series [4] was “lacks this newly described specific activity”. Also, the “ability to glucosylate α-L-Rhap-OAll” value in series [5] was “lacks this newly described specific activity”.

B2: I228Y: 1G5A (N. polysaccharea amylosucrase, SEQ ID NO: 13) single mutant, isoleucine 228 replaced by tyrosine (protein, listed as Neisseria polysaccharea)
chain: B1 chain with I228Y
Consider B2, for which the “recognition of α-L-RhapO-Me as an acceptor” value in series [2] (setting [6]) is “recognizes α-L-RhapO-Me as an acceptor to form in majority a Dp2”. The major reaction occurring result in series [2] (sole presence of sucrose) is “Hydrolysis”. Also, the “highest Dp observed (maltooligosaccharide chains)” value in series [2] (sole presence of sucrose, 146 mM, FIG. 7B) is recorded as 5. For the same molecule, the “activation in the presence of α-L-RhapO-Me” value in series [3] was “clear activation”. For the same molecule, in series [4], the “glucosylation of L-rhamnose with α-(1→3) linkage” value is reported as “observed for all mutants except I228Y”.

The values above are taken from patent US20110144317A1, “MUTANTS OF GLYCOSIDE HYDROLASES AND USES THEREOF FOR SYNTHESIZING COMPLEX OLIGOSACCHARIDES AND DISACCHARIDE INTERMEDIATES” (priority 2008, published 2011).
